For series [1], the system named is PANC-1 cells. Description: Competition assays with human transferrin or human transferrin receptor antibodies. The series is classed as cell-based. To be noted: aptamer 200 nM. The protocol: Competition assays. For competition assays with human transferrin or human transferrin receptor antibodies, 5×10^3 PANC-1 cells/well were seeded in 96-well plates and grown in one day. Cells were pre-incubated with TR14 at 200 nM for 20 min on ice with PBS. After washing with PBS, human transferrin conjugated with Alexa-488 at 25 μg/mL or human transferrin receptor antibody (2 μL/1×10^4 cells) conjugated with FITC were added to cells and the cells were incubated at 37° C. for 40 min. Afterward, the cells were washed with HBSS twice to remove cell surface binders. The intensity of fluorescence was quantified using plate reader (Molecular device, SpectraMax iD5). The intensity was normalized with aptamer non-treated control cells (mock).

The subject of series [2] is PANC-1 cells. Description: Live-cell confocal imaging for aptamer internalization, PANC-1. The series is classed as cell-based, human. To be noted: Cy3-labeled aptamer 200 nM, 2-h incubation, PANC-1, confocal microscopy. The protocol:
(§1) Live-cell confocal imaging for aptamer internalization. 1×10^5 HepG2 or PANC-1 cells were seeded in 35-mm glass-bottom dishes (MatTek, Ashland, Mass.) and grown in appropriate media for 24 h. Aptamer RNAs were labeled with Cy3 fluorescent dye using the Cy3 Silencer siRNA labeling kit (Thermo Fisher Scientific, Waltham, Mass.). Cy3-labeled aptamers in binding buffer (30 mM Tris-HCl, pH 7.5; 150 mM NaCl; 5 mM MgCl2; 100 μg/mL yeast tRNA) were added to the cells at 200 nM and incubated at 37° C. for 2 h. Before imaging, cells were washed with DPBS twice. Live-cell confocal imaging was performed with a Zeiss LSM 510 Meta inverted two-photon confocal microscope system using a C-Apo 40×/1.2NA water immersion objective, and AIM 4.2 software (Carl Zeiss, Jena, Germany).

Series [3] has as its target T1, hTfR1 (extracellular domain of hTfR, His6-tagged) (Homo sapiens, UniProt P02786).
T1 construct: (NP_003225.2) (Cys 89-Phe 760); His6 (N); purchased Sino Biological Inc 11020-H07H; host or cells: HEK293
Kind of series: Surface plasmon resonance-based biosensor assay (Biacore T100), aptamer-hTfR binding affinity and kinetics. The source says: Recombinant target protein. hTfR was purchased from Sino Biological Inc (11020-H07H, Beijing, P.R. China). The extracellular domain of hTfR (NP_003225.2) (Cys 89-Phe 760) was expressed with a His6-tag at the N-terminus in human cells (HEK293).
Surface plasmon resonance-based biosensor assay. The Biacore T100 (GE Healthcare, Uppsala, Sweden) was used to monitor label-free interactions of truncated TR14-hTfR1 in real time. The biotinylated aptamer was coupled to a streptavidin-coated Biacore chip (SensorChip SA, BR-1003-98, General Electric Company) by an injection in binding buffer at a concentration of 25 μg/mL (30 mM Tris-HCl, pH 7.5; 150 mM NaCl; 5 mM MgCl2) at 10 uL/min. The RNA was refolded by heating to 65° C., followed by cooling to 37° C., before immobilization. To measure binding kinetics, five concentrations of purified hTfR1 protein were injected at a flow rate of 10 uL/min. After binding, the surface was regenerated by injecting 50 mM NaOH at a flow rate of 15 μL/min for 20 s. Data from the control surface were subtracted. BIAevaluation software (GE Healthcare) was used for analysis. The binding data was fit to a 1:1 binding with a mass transfer model to calculate kinetics parameters as previously described (Hernandez et al, 2009; Soontornworajit et al, 2011)
For orientation: SPR reads the build-up and loss of mass on a sensor chip optically.

In series [4] the test system is PANC-1 cells. Description: Flow cytometry-based binding assay. In kind it is cell-based, human. To be noted: Cy3-labelled aptamer 500 nM, 20 minutes in ice, PANC-1, compared with initial RNA library pool. The protocol:
Flow cytometry-based binding assays. Aptamer binding was assessed by flow cytometry. For the assay, the PANC-1 cells were detached using Accutase, washed with PBS and suspended in binding buffer. Next, chemically synthesized aptamers labeled with Cy3 at 500 nM were added to target cells for 20 minutes in ice. Cells were washed with binding buffer and immediately analyzed by NovoCyte (ACEA Biosciences). For the exclusion of dead cells, 4′6′-diamidino-2-phenylindole (DAPI) (1 μg/ml) was used. The data were analyzed with NovoExpress software.

Series [5] concerns the target T2, TfR1 (Homo sapiens, UniProt P02786).
T2 construct: The U87MG cells only express TfR1, not TfR2; endogenous in cells; host or cells: U87MG (U-87 MG, ATCC HTB-14)
Description: Cross-reactivity by live cell confocal imaging, U87MG cells (express TfR1, not TfR2). In kind it is cell-based. To be noted: Cy3-labelled aptamer, U87MG cells (TfR1 only). As to the method: (§2) Cell line. HepG2 (Hepatocarcinoma, HB-8065) and PANC-1 (Pancreatic epithelioid carcinoma, CRL-1469), U-87 MG (Glioblastoma, HTB-14) were purchased from the American Type Culture Collection (ATCC, Manassas, Va.). The cells were cultured according to the suppliers' instructions. TB10 human glioma cell line was obtained from Vittorio de Franciscis lab in Italy. The cells were cultured according to the suppliers' instructions.
(§3) To determine the potential cross-reactivity of the parent TR14, S2 (43-nt) and ST1-3 (22-nt) truncates, we tested chemically synthesized parent TR14, TR14-[…] or TR14-ST1-3 aptamer labelled with Cy3 on live cells imaging by confocal microscopy. To test this, we choose two glioblastoma cell lines (U87MG and TB10) that are selectively expressed of TfR1 or TfR2. The U87MG cells only express TfR1, not TfR2. In contrast, TB10 expresses TfR2, not TfR1.

Series [6] concerns PANC-1 cells. Kind of series: Co-localization assay with early endosome, late endosome and lysosome markers. To be noted: Cy3 labelled aptamer 200 nM, 2 h, live cells expressing GFP-Rab5a, Rab7a or Lamp1. The series is classed as cell-based, human. The protocol:
Co-localization assay. 1×10^5 PANC-1 cells were seeded in 35 mm glass-bottom dishes (MatTek, Ashland, Mass.) and grown in appropriate media for 24 h. CellLight™ Early endosome-GFP BacMam 2.0 (Thermo Fisher, C10586, CellLight™ Late endosome-GFP BacMam 2.0 (Thermo Fisher, C10588), or CellLight™ Lysosome-GFP BacMam 2.0 lysosome-GFP (Thermo Fisher, C10596) of 20 μL were added and incubated at 37° C. for 16 h. After confirmation of GFP expression, chemically synthesized TR14 labelled with Cy3 at 200 nM was incubated at 37° C. for 2 h. The co-localization was assessed on live cells by confocal microscopy.

The subject of series [7] is PANC-1 cells. Description: Cellular uptake inhibition assay with endocytosis inhibitors. To be noted: Cy3-aptamer 200 nM, 1 hour. The series is classed as cell-based, human. The protocol:
Cellular uptake inhibition assay. 5×10^3 PANC-1 cells/well were seeded in 96-well plates one day before assay. PANC-1 cells were left either pretreated or untreated with chlorpromazine (CPZ, clathrin endocytosis inhibitor, 10 μg/mL), chloroquine (CQ, clathrin endocytosis inhibitor, 20 μg/mL), dynasore (dynamine inhibitor, 80 μM), genistein (GEZ, caveolae/lipid mediated endocytosis inhibitor, 50 μg/mL), or, cytochalasin D (Cyto D, 5 μM) at 37° C. for 30 min. Subsequently, cells were washed with DPBS and incubated with Cy3-labeled aptamers at 200 nM at 37° C. f for 1 hour. Following incubation, cells were washed with HBSS to remove surface-bound aptamers. Cellular uptake was quantified by fluorescence using a plate reader (Molecular device, SpectraMax iD3). The inhibition of uptake was normalized with inhibitor non-treated groups (mock)

For series [8], the target named is T3, TfR2 (Homo sapiens, UniProt Q9UP52).
T3 construct: In contrast, TB10 expresses TfR2, not TfR1; endogenous in cells; host or cells: TB10 human glioma cells
T3 sequence (Q9UP52 1-801): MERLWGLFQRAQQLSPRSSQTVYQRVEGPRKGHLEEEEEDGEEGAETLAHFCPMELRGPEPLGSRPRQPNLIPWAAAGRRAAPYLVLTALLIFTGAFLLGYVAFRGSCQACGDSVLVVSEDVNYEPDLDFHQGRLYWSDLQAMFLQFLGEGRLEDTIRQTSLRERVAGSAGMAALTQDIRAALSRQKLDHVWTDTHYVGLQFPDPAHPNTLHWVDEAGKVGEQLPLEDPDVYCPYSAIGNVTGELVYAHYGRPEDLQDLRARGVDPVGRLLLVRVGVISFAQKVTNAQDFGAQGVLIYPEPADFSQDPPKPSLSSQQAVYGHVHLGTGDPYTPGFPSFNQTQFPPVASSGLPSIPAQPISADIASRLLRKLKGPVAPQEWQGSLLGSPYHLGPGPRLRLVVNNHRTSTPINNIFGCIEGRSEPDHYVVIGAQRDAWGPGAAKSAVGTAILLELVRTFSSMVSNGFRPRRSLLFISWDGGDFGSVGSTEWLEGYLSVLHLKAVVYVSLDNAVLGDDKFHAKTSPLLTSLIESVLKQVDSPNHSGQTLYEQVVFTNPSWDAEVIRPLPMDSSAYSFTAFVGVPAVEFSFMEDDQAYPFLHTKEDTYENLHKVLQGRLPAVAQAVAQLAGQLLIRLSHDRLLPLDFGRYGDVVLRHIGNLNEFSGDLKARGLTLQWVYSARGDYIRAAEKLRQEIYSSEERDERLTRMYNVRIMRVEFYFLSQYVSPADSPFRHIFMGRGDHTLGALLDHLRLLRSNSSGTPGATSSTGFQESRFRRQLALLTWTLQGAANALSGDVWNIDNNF
Description: Cross-reactivity by live cell confocal imaging, TB10 cells (express TfR2, not TfR1). In kind it is cell-based. To be noted: Cy3-labelled aptamer, TB10 cells (TfR2 only). As to the method:
as §2, §3

Series [9] deals with HepG2 cells. Description: Live-cell confocal imaging for aptamer internalization, HepG2. The series is classed as cell-based, human. To be noted: Cy3-labeled aptamer 200 nM, 2-h incubation, HepG2, confocal microscopy. As to the method:
as §1

Setting [10] is: Biacore T100, biotinylated aptamer on streptavidin chip, hTfR1 protein injected, 1:1 binding with mass transfer.
Setting [11] is: label-free biosensor assay in real-time.

T1 sequence (P02786 89-760): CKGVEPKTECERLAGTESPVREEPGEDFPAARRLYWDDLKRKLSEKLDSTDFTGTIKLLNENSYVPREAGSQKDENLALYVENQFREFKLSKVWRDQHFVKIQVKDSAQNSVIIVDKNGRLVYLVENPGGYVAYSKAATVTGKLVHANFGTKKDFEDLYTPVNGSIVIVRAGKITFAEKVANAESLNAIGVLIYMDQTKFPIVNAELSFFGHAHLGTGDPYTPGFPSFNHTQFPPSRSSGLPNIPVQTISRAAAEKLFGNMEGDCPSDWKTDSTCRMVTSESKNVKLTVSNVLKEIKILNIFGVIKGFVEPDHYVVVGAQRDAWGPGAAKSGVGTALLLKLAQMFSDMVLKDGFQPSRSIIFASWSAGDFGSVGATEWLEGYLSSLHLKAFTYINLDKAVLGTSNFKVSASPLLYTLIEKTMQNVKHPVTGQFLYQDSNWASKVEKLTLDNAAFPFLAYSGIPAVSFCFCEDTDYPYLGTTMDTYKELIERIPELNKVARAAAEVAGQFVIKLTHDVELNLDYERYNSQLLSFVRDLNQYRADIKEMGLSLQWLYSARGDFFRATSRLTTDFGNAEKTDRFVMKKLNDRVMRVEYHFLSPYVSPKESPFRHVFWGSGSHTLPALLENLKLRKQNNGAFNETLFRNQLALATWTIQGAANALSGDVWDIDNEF
T2 sequence (P02786 whole entry): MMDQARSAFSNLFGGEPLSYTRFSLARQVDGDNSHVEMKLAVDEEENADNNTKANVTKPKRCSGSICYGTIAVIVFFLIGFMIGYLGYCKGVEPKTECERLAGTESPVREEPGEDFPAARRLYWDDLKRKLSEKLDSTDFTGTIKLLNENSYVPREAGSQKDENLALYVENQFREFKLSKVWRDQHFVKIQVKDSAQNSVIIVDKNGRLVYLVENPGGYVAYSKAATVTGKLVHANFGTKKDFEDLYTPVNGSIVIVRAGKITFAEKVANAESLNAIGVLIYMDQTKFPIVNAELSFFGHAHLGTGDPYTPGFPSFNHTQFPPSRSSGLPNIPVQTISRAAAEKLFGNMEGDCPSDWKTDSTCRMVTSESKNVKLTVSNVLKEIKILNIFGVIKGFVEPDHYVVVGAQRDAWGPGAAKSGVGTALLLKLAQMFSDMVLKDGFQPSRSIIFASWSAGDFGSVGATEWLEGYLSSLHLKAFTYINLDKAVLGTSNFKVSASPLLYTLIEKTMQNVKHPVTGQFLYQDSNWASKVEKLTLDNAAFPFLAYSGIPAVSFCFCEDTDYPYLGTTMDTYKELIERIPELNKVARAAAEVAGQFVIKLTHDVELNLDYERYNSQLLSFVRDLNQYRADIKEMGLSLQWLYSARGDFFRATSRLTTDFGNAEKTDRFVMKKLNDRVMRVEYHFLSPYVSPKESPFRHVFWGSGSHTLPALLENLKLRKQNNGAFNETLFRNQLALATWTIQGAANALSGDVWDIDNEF

B1: TR14: 87-nucleotide anti-hTfR 2′F-RNA aptamer identified after nine rounds of protein SELEX; SEQ ID NO:1 (nucleic acid)
chain: GGGAGACAAGAAUAAACGCUCAAUGCGUUCACGUUUAUUCACAUUUUUGAAUUGAGCAUGAGCUUCGACAGGAGGCUCACAACAGGC
modifications: 2'-fluoro RNA aptamer from SELEX, modified positions not given here
Consider B1, for which the “competition with transferrin receptor antibodies” value in series [1] (FITC-conjugated human transferrin receptor antibody) is “did not compete”. In addition, the “internalized transferrin after pre-incubation with aptamer” value in series [1] (human transferrin-Alexa-488 25 μg/mL) is recorded as “significantly inhibited”. In addition, in [2], the cell internalization entry is given as “successfully internalized”. In series [3] (setting [10]), the “ka (1/Ms), measured association rate” value was 6780 M⁻¹ s⁻¹ and the “kd (1/s), measured disassociation rate” value worked out at 1.68e-06 s⁻¹. Also, in [3] (setting [11]), the “association (ka) rate constant” value came to 6780 M⁻¹ s⁻¹ and the “dissociation (kd) rate constant” value is 1.68e-06 s⁻¹. Also, in series [3] (label-free biosensor assay in real-time, read-out: equilibrium dissociation constant (K^D) for hTfR), the Kd stood at 0.0317 nM. For the same molecule, in series [4], the “cell surface binding by flow cytometry” value is reported as “enriched cell surface binding”. In addition, in series [5], the “binding to TfR1” value is “bound to both TfR1 and TfR2”. Besides, the “subcellular co-localization with early endosome, late endosome and lysosome” value in [6] is listed as “multiple co-localizations”. For the same molecule, in [7] (chlorpromazine 10 μg/mL, chloroquine 20 μg/mL or dynasore 80 μM), the “uptake of aptamer after pre-treatment with clathrin mediated endocytosis (CME) inhibitors” value is “inhibited significantly”. Further, the “uptake of aptamer after pre-treatment with clathrin independent endocytosis (CIE) inhibitors” value in series [7] (genistein 50 μg/mL or cytochalasin D 5 μM) was “not interfered”. In addition, in [8], the “binding to TfR2” value was “bound to both TfR1 and TfR2”. In addition, the cell internalization entry in [9] was “successfully internalized”.
